We go through 1 substance from patent US20090285771A1.

The target in the experiment is growth hormone (GH) receptor (mouse) (UniProt P16882). The experiment in a line: cell-based or functional assay.

As to “recombinant rat growth hormone (from UniProt P01244 27-216) (ligand)”, the GH receptor mRNA expression levels in the liver (quantitative RT-PCR, normalized to GAPDH, % of control), 60 minutes after 30 µg subcutaneous rGH in BALB/c mice (% of level prior to administration) was found to be 65 and the IGF-1-BP3 mRNA expression levels in the liver (quantitative RT-PCR, normalized to GAPDH, % of control), 60 minutes after 30 µg subcutaneous rGH in BALB/c mice came out at 250 % increase.
